Reference: publication PMC9169775, “Structural conservation among variants of the SARS-CoV-2 spike postfusion bundle” (Proceedings of the National Academy of Sciences of the …, 2022)

Target: the molecule itself
Assay: SDS-PAGE with or without boiling (SDS-resistant oligomer); purified scaffolded HR1HR2 bundle and scaffold alone, with or without boiling

B1: Dps4 from Nostoc punctiforme (NpDps4), scaffold alone (natural protein)
chain: ETQTLLRNFGNVYDNPVLLDRSVTAPVTEGFNVVLASFQALYLQYQKHHFVVEGSEFYSLHEFFNESYNQVQDHIHEIGERLDGLGGVPVATFSKLAELTCFEQESEGVYSSRQMVENDLAAEQAIIGVIRRQAAQAESLGDRGTRYLYEKILLKTEERAYHLSHFLAKDSLTLGFVQAA
notes: Dps4 from Nostoc punctiforme (NpDps4); Construct details in SI Appendix, Supplementary Notes; also called the scaffold alone; source: E. coli BL21(DE3), purified (Ni-NTA, SEC); copies: 12
stoichiometry N: 12
